In this test the target is programmed cell death 1 (PD1), endogenous in mouse CD8+ T cells (mouse (endogenous in OT-1 and C57BL/6 CD8+ T cells)) (UniProt Q02242). In words: co-IP; Lag3-/- or Pdcd1-/- mouse CD8+ T cells retrovirally transduced with LAG3 or PD1 constructs (pMIG-II), sorted, rested in IL2, restimulated with IE9mp1 for 5 min or treated with pervanadate for 5 min; antibody-conjugated Dynal beads; Western blot, densitometry normalised to input. On the technique in general: In western blotting, separated proteins are transferred to a membrane and probed.
Sequence of programmed cell death 1 (PD1), endogenous in mouse CD8+ T cells (mouse (endogenous in OT-1 and C57BL/6 CD8+ T cells)) (Q02242 25-288): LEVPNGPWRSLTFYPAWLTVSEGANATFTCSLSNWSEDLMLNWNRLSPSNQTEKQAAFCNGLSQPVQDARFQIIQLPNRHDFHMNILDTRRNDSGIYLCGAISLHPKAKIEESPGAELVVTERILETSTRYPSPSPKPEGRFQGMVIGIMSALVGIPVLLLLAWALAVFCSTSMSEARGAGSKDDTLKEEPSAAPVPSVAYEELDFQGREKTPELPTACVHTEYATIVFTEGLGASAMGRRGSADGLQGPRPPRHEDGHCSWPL

Sequence of Src-homology-2 domain-containing phosphatase SHP1, endogenous in mouse CD8+ T cells, P29351 1-595 (enzyme; other documents disagree on this pair) (P29351 whole entry): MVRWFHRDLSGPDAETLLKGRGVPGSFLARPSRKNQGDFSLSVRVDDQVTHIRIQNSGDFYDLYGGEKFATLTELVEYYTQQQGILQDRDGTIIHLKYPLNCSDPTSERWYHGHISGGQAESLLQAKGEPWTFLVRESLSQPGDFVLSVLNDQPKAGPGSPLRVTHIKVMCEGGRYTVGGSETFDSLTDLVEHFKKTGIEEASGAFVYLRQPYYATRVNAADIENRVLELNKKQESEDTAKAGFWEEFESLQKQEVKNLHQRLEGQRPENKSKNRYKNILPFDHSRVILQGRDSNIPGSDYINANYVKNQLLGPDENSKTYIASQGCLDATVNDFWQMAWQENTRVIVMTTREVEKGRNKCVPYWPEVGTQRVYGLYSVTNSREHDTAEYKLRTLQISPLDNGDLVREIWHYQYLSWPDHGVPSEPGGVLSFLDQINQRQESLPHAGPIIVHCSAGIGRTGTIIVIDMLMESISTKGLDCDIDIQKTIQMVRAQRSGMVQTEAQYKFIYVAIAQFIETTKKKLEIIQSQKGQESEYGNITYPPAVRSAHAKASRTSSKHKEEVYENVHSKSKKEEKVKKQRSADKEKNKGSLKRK

As to “LAG3 lacking the cytoplasmic domain, expressed from pMIG-LAG3ΔCY in Lag3-/- CD8+ T cells (domain or fragment)”, the amount pulled down by anti-PD1 antibody, against pLAG3 turned out to be 30 % lower.

For “Src-homology-2 domain-containing phosphatase SHP1, endogenous in mouse CD8+ T cells, P29351 1-595 (enzyme; other documents disagree on this pair)”, the amount pulled down by anti-PD1 antibody in cells with pΔCY, against cells with pLAG3 came out at 20 % less.

The record behind these values is PMC4694995.
